This is an account of results in patent US20210395773A1, “IN VIVO CONTROLLED COMBINATION THERAPY FOR TREATMENT OF CANCER” (PRECIGEN, INC., priority 2018, published 2021).

In one series the test system is GL-261 medullary glioma. The settings on record: vehicle mOS 16 days.
Series [1] is described as follows: Phase 1 Main Study: veledimex in plasma and tumor. Format: in vivo, human. How it is done:
FIGS. 21A-21D show a series of graphs depicting veledimex, IL-12 and IFN-γ concentrations upon treatment with veledimex. […] Each symbol represents plasma from a single patient. […] Veledimex was administered to each patient approximately 3 hours before the start of the craniotomy. Serum and tumor at the time of resection were then assayed for veledimex levels.
This study is investigating two intratumoral Ad-RTS-hIL-12 doses (2×10^11 vp or 1×10^12 vp) and escalating veledimex doses (10 mg to 40 mg) to determine the safe and tolerable dose based on the safety profiles observed in the presence of variable corticosteroid exposure. Group 1 received one veledimex dose before a standard-of-care resection procedure, Ad was administered by freehand intratumoral injection, then continued with oral V QD for 14 days. Subjects not scheduled for tumor resection (Group 2) received Ad-RTS-hIL-12 (2×10^11 vp or 1×10^12 vp) by stereotactic injection and then continued on oral veledimex for 14 days.

Series [2] is described as follows: Veledimex levels in blood and CSF after oral gavage (blood-brain barrier crossing). In kind it is in vivo, C57BL/6 mice. Particulars: PO 450 or 1,200 mg/m2/day; normal C57BL/6 and orthotopic GL-261 glioma mice; 24 hours post-veledimex. How it is done: To generate orthotopic GL-261 glioma mice, a group of C57BL/6 mice received 1×10^5 GL-261 glioma cells via intracranial injection ˜2 mm distal to the intersection of the coronal and sagittal suture. On day 5, the animals were randomly assigned to one of the treatment groups. GL-261, a murine glioma tumor cell line, was purchased from American Type Culture Collection (Manassas, Va.).
Veledimex was administered to normal C57BL/6 mice or orthotopic GL-261 glioma mice via oral gavage (PO) at 450 mg/m2/day or 1,200 mg/m^2/day. Terminal blood and CSF were collected for normal C57BL/6 mice or orthotopic GL-261 glioma mice after 2 days of treatment, and for orthotopic GL-261 glioma mice after 13 days of treatment.

Series [3] deals with cytotoxic T cells and Tregs in peripheral blood. Nature of the series: Phase 1 Ad+V with nivolumab in rGBM: peripheral blood flow cytometry. Format: in vivo, human. The settings on record: after nivolumab alone. (In general: A flow cytometer gives signals particle by particle.)
Description: Methods: An open label, dose escalation Phase 1 study evaluating safety and tolerability of local, inducible IL-12 expression in combination with nivolumab in adult subjects with recurrent glioblastoma (rGBM) was commenced. Ad was administered by intratumoral injection (using a dose of 2×10^11 vp (2e11 vp)) along with daily veledimex (V) (at doses of 10-20 mg) QDx15 PO with nivolumab intravenous infusions (at doses of 1-3 mg/kg) at Day (−)7 (i.e., 7 days prior to administration of Ad+V), at Day 15 (after administration of Ad+V), then Q2W (i.e., once every 2-weeks).
A short description of series [4]: Phase 1 Ad+V with nivolumab in rGBM: safety (adverse events). In kind it is in vivo, human. The settings on record: by relatedness. How it is done:
(§1) Ad was administered by intratumoral injection (using a dose of 2×10^11 vp (2e11 vp)) along with daily veledimex (V) (at doses of 10-20 mg) QDx15 PO with nivolumab intravenous infusions (at doses of 1-3 mg/kg) at Day (−)7 (i.e., 7 days prior to administration of Ad+V), at Day 15 (after administration of Ad+V), then Q2W (i.e., once every 2-weeks).

Another series concerns IL-12. Nature of the series: Phase 1 Ad+V with nivolumab in rGBM: serum IL-12. Format: in vivo, human. The method, then:
as §1

[5] abbreviates: Cohort 1: Ad + V (10 mg) Nivolumab (1 mg/kg) N = 3.
The mark [6] stands for this setting: Cohort 2: Ad + V (10 mg) Nivolumab (3 mg/kg) N = 3.
The mark [7] stands for this setting: Cohort 3: Ad + V (20 mg) Nivolumab (3 mg/kg) N = 2.

Marks after values point to notes of the source that are not given here.

Excerpt for GL-261 medullary glioma: Ad-RTS-hIL-12 (Ad) is a recombinant, adenoviral-delivered, gene therapy for expression of interleukin-12 (IL-12) under the control of an orally administered activator ligand, veledimex (V), acting in concert with a ligand-inducible gene switch (also referred to as “RTS®”).

Consider `Cn1nnc2c(C(N)=O)ncn2c1=O` [temozolomide], for which the mOS in the series with GL-261 medullary glioma is 25 days.
For `CCC[C@@H](N(NC(=O)c1cccc(OC)c1CC)C(=O)c1cc(C)cc(C)c1)C(C)(C)C` [veledimex, (R)—N′-(3,5-dimethylbenzoyl)-N′-(2,2-dimethylhexan-3-yl)-2-ethyl-3-methoxybenzohydrazide], in series [1] (V 10-40 mg), the “plasma and tumor V peak PK levels versus dose” value is recorded as “dose dependent”. Also, the Kp in series [1] (human, tumor (relative to plasma), oral, Main Study, tumor vs plasma at resection, about 3 hours after V, read-out: V tumor penetration) is around 0.4. Moreover, in series [1] (rGBM patients), the “crossing of the blood-brain-barrier” value was “crosses the blood-brain-barrier”. For the same compound, the “crossing of the blood-brain barrier by orally administered veledimex” value in series [2] was “crosses the blood-brain barrier”.
Turning to “Nivolumab: antibody that binds PD-1; heavy and light chains SEQ ID NO: 10 and 11”, the “Tregs (FoxP3) at Day 0” value in series [3] (baseline 1.5%) was determined as 0.8%. Besides, the “peripheral cytotoxic T cells CD3+CD8+ at Day 0” value in series [3] (median baseline 23%) came to 26%. In series [4] (setting [5]), the “Related ≥ Grade 3 AEs: ALT increased” value was determined as 0, the “Related ≥ Grade 3 AEs: Brain oedema (cerebral edema)” value (“Related ≥ Grade 3 AEs: Brain oedema” for short) is 1 (33%), the “Related ≥ Grade 3 AEs: Lipase increased” value is given as 0 and the “Related ≥ Grade 3 AEs: Lymphocyte count Decreased” value was 0. In addition, in series [4] (setting [6]), the “Related ≥ Grade 3 AEs: ALT increased” value is reported as 0, the “Related ≥ Grade 3 AEs: Brain oedema” value was found to be 0 and the “Related ≥ Grade 3 AEs: Lipase increased” value is on record as 1 (33%). The “Related ≥ Grade 3 AEs: Lymphocyte count Decreased” value in series [4] (Cohort 2: Ad + V (10 mg) Nivolumab (3 mg/kg) N = 3, one AE related to both) is 1 (33%)*. For the same compound, in series [4] (setting [7]), the “Related ≥ Grade 3 AEs: ALT increased” value turned out to be 0, the “Related ≥ Grade 3 AEs: Brain oedema” value was found to be 0, the “Related ≥ Grade 3 AEs: Lipase increased” value is 0 and the “Related ≥ Grade 3 AEs: Lymphocyte count Decreased” value is 0. In addition, the “related SAEs” value in series [4] (Cohorts 1-3) was “One SAE of brain oedema (cerebral edema) was considered related to nivolumab alone”. Further, in the series with IL-12 (after nivolumab alone (Day -7 dose), median baseline 0.9 pg/ml), the “peripheral IL-12 at Day 0 (median)” value turned out to be 1.0 pg/mL. The “impact of pre-dosing on cytokine levels prior to Ad+V” value in the series with IL-12 (nivolumab Day -7) is given as “did not have an impact on cytokine levels”.
